The values below come from FireProtDB (doi:10.1002/pro.5560060808).

For this series the following is noted: Aspergillus oryzae (strain ATCC 42149 / RIB 40), Thermal, DSC, reversible: yes, whole UniProt chain shown.
[1] abbreviates: pH 4.5, Acetic acid-Sodium acetate 0.1 M.

B1: Guanyl-specific ribonuclease T1 wild type, P00651 (protein)
chain: MMYSKLLTLTTLLLPTALALPSLVERACDYTCGSNCYSSSDVSTAQAAGYQLHEDGETVGSNSYPHKYNNYEGFDFSVSSPYYEWPILSSGDVYSGGSPGADRVVFNENNQLAGVITHTGASGNNFVECT
Turning to B1, the Tm by setting is: (pH 3, glycine-HCl 0.1 M) 52.4 °C; (pH 3.5, glycine-HCl 0.1 M) 54.7 °C; under setting [1], 59.2 °C; (pH 6, MES 0.1 M) 62.4 °C. The “heat capacity change of unfolding” value (pH 3, glycine-HCl 0.1 M) came out at 1.2 kcal/mol/K; the “heat capacity change of unfolding” value (pH 3.5, glycine-HCl 0.1 M) was found to be 1.44 kcal/mol/K; the “heat capacity change of unfolding” value under setting [1] worked out at 1.17 kcal/mol/K; the “heat capacity change of unfolding” value (pH 6, MES 0.1 M) turned out to be 1.39 kcal/mol/K. Further, the “unfolding enthalpy (calorimetric)” value (pH 3, glycine-HCl 0.1 M) turned out to be 99.3 kcal/mol; the “unfolding enthalpy (calorimetric)” value (pH 3.5, glycine-HCl 0.1 M) worked out at 103 kcal/mol; the “unfolding enthalpy (calorimetric)” value under setting [1] came to 109 kcal/mol; the “unfolding enthalpy (calorimetric)” value (pH 6, MES 0.1 M) amounted to 112 kcal/mol.

In general, Tm refers to the temperature at the midpoint of the melting transition.
